Data as given in patent US20250382376A1 (FUDAN UNIVERSITY, published 2025).

Key:
[1] = molecular target: T1, extracellular domain of human CD73 protein, C-terminus polyhistidine-tagged (human, UniProt P21589 27-547); test: SPR as the filing names it (method of Example 2, ForteBio OCTET R2)
T1 construct: also the immunogen; also called CD73-ECD; human CD73-ECD
T1 sequence: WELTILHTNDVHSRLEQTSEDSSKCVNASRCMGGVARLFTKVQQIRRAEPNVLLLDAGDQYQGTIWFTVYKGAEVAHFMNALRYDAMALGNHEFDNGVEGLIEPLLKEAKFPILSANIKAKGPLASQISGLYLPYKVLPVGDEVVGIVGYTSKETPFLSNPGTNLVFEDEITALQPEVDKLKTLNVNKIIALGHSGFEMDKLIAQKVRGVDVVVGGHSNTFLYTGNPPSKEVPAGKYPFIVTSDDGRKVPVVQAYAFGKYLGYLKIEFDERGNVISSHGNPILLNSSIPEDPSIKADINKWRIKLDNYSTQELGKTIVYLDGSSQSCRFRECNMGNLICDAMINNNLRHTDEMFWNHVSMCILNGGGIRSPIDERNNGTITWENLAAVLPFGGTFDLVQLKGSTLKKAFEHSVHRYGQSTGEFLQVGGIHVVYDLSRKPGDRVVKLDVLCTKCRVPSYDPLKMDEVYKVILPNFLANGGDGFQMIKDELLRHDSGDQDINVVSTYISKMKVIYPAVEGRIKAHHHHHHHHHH
Procedure: Surface plasmon resonance (SPR) assay: Protein A sensor was used to immobilize the antibodies, with an immobilization height of about 1.5 nM. […] Affinity detection: equilibrium for 60 s, binding for 180 s, dissociation for 180 s, at a detection temperature of 25° C. Kinetic characterization analysis was performed using the ForteBio OCTET R2 system.
The affinity of the humanized antibody to the antigen was detected by the surface plasmon resonance (SPR) assay method in Example 2.

[2] = molecular target: T1, extracellular domain of human CD73 …; test: ELISA on CD73-ECD, 0.8 µL supernatant of antibody expression, second of two readings; PBS 0.19, 0.18
Procedure: (§1) The CD73 protein extracellular region (CD73-ECD) was diluted to 1 μg/mL using the coating solution, and an ELISA plate was coated at 100 μL/well at 4° C. overnight. Excess antigens were washed away, and the plate was blocked with 1% BSA at room temperature for 2 hours. Then, 5-fold gradient dilutions of each monoclonal antibody were added at 100 μL/well and incubated at room temperature for 1 hour. Unbound antibodies were washed away, and an appropriate concentration of Staphylococcal protein A labeled with horseradish peroxidase was added at 100 μL/well and incubated at room temperature for 0.5 hours. Unbound secondary antibodies were washed away, and TMB color development solution was added to react for about 15 minutes. 1M HCL was added at 50 µL/well to terminate the color development reaction, and then the absorbance was measured at 450 nm and the data was analyzed.
(§2) CD73 antigen ELISA binding affinity test was performed according to the method of Example 3.

[3] = molecular target: T1, extracellular domain of human CD73 …; test: ELISA on CD73-ECD, 20 µL supernatant of antibody expression, second of two readings; PBS 0.19, 0.18
Procedure: as §1, §2

[4] = molecular target: T1, extracellular domain of human CD73 …; test: ELISA on CD73-ECD, 4 µL supernatant of antibody expression, first of two readings; PBS 0.19, 0.18
Procedure: as §1, §2

Row | Binder | Kd [1] | ELISA reading (not named on the sheet) [2] | ELISA reading (not named on the sheet) [3] | ELISA reading (not named on the sheet) [4]
1 | chimeric nanobody 3-D7 (Fc fusion, Human-alpaca chimeric antibody (VHH on hIgG1 Fc); Only the VHH is tied to the tested molecule; 37-39 exist for 3-D7-FC1/FC2/FC3; also called original antibody 3-D7) VHH: QRQLVESGGGLVQPGGSLRLSCAASGFLLDYYVIGWFRQAPGKEREGVSCISGSDRSTYYADSVKGRFTISRDNAKNTVYLQMNSLKPEDTAVYFCAADPSPVTVQAMCLPRFPVPYWGQGTQVTVST | 0.472 nM | – | – | –
2 | chimeric nanobody 5-E11 (Fc fusion, Human-alpaca chimeric antibody (VHH on hIgG1 Fc); Only the VHH is tied to the tested molecule; also called original antibody 5-E11) VHH: ALQLVESGGGLVQPGGSLRLSCEVSGFTLDYYNIGWFRQAPGKEREGVSCSSNSGGSTYYADSVKGRFTISRDNAKNTVYLQMNSLKPEDTGVYYCAAYRGWHPSLDARVYDYWGQGTEVTVSS | – | 4.16 | 4.32 | 4.23
